In assay [1] the target is T1, Recombinant Human Fc gamma RIIb/CD32b (human, UniProt P31994 46-217).
T1 construct: also called FcγRIIb; CD32b/c
T1 sequence (looked up): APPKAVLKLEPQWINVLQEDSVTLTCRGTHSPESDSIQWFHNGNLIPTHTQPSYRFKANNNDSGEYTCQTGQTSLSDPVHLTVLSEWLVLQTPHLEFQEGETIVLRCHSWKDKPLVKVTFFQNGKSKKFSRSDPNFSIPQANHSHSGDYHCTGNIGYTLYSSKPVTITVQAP
The assay can be described thus: ELISA, plates coated with recombinant CD32b/c, anti-human kappa-HRP. The procedure:
To examine more precisely the CD32b/c binding of MB101, the wt IgG₄ and the two single mutation variants, linear dilutions of the mAbs were incubated with ELISA plates previously coated with recombinant CD32b/c. FcR-bound anti-BDCA2 Ab were probed with anti-human kappa-HRP and TMB-substrate.
(§1) ELISA plates were coated with Fc gamma receptors I, IIa, IIb, IIIa and IIIb with 5 μg/mL each in coating buffer overnight at 4° C. Coated plates were washed 3-fold with 1×PBS 0.05% Tween 20 and blocked with 5% BSA in 1×PBS. Antibodies were applied to ELISA plates with 50 μL/well at serial 2-fold dilution of antibody solution and incubated at room temperature for 1 h. As blank controls, respective antibody concentrations were also applied to wells lacking coated Fc gamma receptors, in order to subtract unspecific binding from resulting signals. After washing (see above), the detection antibody anti-human kappa-HRP (FE 110316.07) 1:4000 in 1×PBS was applied with 50 μL/well and incubated again at RT for 1 h. After additional washing (see above), for assay development 50 μL/well TMB (CH111027.37) were applied and stopped after approx. 5 minutes with 50 μL/well 10% H₂SO₄. The developed plate was then analyzed via ELISA reader at 450 nm wavelength.

Assay [2] concerns the target T1, Recombinant Human Fc gamma RIIb/CD32b. The assay can be described thus: ELISA, plate-bound recombinant receptor, anti-human kappa-HRP. The procedure:
as §1

For assay [3], the target named is T2, Recombinant Human Fc gamma RIIIb/CD16b (human, UniProt O75015 17-200).
T2 construct: also called Fcγ RIIIb/c; CD16b/c
T2 sequence (O75015 17-200 limits assumed): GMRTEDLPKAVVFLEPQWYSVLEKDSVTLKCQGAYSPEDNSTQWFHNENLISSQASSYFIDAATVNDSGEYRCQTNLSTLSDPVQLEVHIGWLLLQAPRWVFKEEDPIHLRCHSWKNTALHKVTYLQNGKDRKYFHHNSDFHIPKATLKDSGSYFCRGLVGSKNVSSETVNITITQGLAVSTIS
The assay is described as above. The procedure:
as §1

B1: aCD303-hIgG4-WT (antibody)
heavy: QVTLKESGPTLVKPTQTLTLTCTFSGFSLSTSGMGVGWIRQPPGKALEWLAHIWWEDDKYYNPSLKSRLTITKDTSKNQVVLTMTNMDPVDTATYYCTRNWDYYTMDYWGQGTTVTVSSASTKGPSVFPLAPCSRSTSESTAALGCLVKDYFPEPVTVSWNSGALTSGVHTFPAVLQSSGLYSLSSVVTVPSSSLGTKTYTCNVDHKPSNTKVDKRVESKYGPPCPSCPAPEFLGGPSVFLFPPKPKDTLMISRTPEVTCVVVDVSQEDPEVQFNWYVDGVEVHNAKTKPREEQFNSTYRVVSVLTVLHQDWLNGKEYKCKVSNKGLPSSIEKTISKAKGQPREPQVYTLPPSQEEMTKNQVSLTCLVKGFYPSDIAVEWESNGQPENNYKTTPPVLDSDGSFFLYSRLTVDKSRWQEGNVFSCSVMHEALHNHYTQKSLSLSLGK
light: DIQMTQSPSSVSASVGDRVTITCRASQEISGYLSWYQQKPGKAIKRLIYAASTLDSGVPSRFSGSRSGTDFTLTISSLQSEDFATYYCLQYASYPPTFGGGTKLEIKGTVAAPSVFIFPPSDEQLKSGTASVVCLLNNFYPREAKVQWKVDNALQSGNSQESVTEQDSKDSTYSLSSTLTLSKADYEKHKVYACEVTHQGLSSPVTKSFNRGEC
notes: MB101 (anti-CD303) expressed as a wild type IgG4; also called wt IgG4; wild type IgG4 antibody (aCD303-hIgG4)
With B1, the binding result in assay [1] is recorded as “binds”.

B2: Pool 6 (aCD303-hIgG4-R409K) (antibody)
heavy: QVTLKESGPTLVKPTQTLTLTCTFSGFSLSTSGMGVGWIRQPPGKALEWLAHIWWEDDKYYNPSLKSRLTITKDTSKNQVVLTMTNMDPVDTATYYCTRNWDYYTMDYWGQGTTVTVSSASTKGPSVFPLAPCSRSTSESTAALGCLVKDYFPEPVTVSWNSGALTSGVHTFPAVLQSSGLYSLSSVVTVPSSSLGTKTYTCNVDHKPSNTKVDKRVESKYGPPCPSCPAPEFLGGPSVFLFPPKPKDTLMISRTPEVTCVVVDVSQEDPEVQFNWYVDGVEVHNAKTKPREEQFNSTYRVVSVLTVLHQDWLNGKEYKCKVSNKGLPSSIEKTISKAKGQPREPQVYTLPPSQEEMTKNQVSLTCLVKGFYPSDIAVEWESNGQPENNYKTTPPVLDSDGSFFLYSKLTVDKSRWQEGNVFSCSVMHEALHNHYTQKSLSLSLGK
light: DIQMTQSPSSVSASVGDRVTITCRASQEISGYLSWYQQKPGKAIKRLIYAASTLDSGVPSRFSGSRSGTDFTLTISSLQSEDFATYYCLQYASYPPTFGGGTKLEIKGTVAAPSVFIFPPSDEQLKSGTASVVCLLNNFYPREAKVQWKVDNALQSGNSQESVTEQDSKDSTYSLSSTLTLSKADYEKHKVYACEVTHQGLSSPVTKSFNRGEC
notes: Single mutation variant of MB101; also called anti-CD303 IgG4 R409K; IgG4 variant R409K
B2: the binding result in assay [1] is reported as “binds”.

B3: MB101 (aCD303-hIgG4-S241P/R409K) (antibody)
heavy: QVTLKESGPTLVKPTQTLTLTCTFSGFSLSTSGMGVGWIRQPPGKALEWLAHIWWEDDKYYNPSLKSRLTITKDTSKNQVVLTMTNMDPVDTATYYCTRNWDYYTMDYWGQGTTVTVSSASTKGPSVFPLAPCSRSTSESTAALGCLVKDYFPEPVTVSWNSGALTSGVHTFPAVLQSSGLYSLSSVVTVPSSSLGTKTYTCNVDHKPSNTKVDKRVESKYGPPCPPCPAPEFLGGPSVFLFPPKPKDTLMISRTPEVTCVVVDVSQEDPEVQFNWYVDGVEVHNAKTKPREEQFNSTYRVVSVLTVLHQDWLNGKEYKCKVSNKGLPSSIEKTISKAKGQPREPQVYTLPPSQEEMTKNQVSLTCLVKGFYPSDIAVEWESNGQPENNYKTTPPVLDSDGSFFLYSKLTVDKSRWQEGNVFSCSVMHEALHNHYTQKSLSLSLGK
light: DIQMTQSPSSVSASVGDRVTITCRASQEISGYLSWYQQKPGKAIKRLIYAASTLDSGVPSRFSGSRSGTDFTLTISSLQSEDFATYYCLQYASYPPTFGGGTKLEIKGTVAAPSVFIFPPSDEQLKSGTASVVCLLNNFYPREAKVQWKVDNALQSGNSQESVTEQDSKDSTYSLSSTLTLSKADYEKHKVYACEVTHQGLSSPVTKSFNRGEC
notes: Humanized IgG4 against BDCA-2 (CD303), made in CHO DG44 cells; also called MB101.10; anti-CD303 IgG4 S241P/R409K
As for B3, the binding result in assay [2] was “binds”; in assay [3], “no binding”.

The record behind these values is patent US20200055941A1 (MILTENYI BIOTEC, published 2020).
